According to patent publication US7217700:

Experiments:
CCR6 (human) = target: T1, CCR6 (human) (UniProt P51684); assay: cell-based or functional assay
T1 sequence (looked up): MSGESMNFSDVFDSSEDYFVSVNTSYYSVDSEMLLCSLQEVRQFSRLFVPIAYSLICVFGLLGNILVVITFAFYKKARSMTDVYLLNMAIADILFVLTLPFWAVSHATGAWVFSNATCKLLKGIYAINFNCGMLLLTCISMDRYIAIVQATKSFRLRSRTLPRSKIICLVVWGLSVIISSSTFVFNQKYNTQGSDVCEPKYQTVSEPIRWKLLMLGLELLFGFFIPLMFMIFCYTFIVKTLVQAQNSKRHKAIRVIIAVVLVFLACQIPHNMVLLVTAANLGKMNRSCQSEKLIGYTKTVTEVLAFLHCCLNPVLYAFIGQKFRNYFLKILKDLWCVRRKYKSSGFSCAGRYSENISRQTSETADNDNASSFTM

CCR7 (human) = CCR7 (human) (UniProt P32248); assay: cell-based or functional assay
Sequence of UniProt P32248 (P32248 25-378): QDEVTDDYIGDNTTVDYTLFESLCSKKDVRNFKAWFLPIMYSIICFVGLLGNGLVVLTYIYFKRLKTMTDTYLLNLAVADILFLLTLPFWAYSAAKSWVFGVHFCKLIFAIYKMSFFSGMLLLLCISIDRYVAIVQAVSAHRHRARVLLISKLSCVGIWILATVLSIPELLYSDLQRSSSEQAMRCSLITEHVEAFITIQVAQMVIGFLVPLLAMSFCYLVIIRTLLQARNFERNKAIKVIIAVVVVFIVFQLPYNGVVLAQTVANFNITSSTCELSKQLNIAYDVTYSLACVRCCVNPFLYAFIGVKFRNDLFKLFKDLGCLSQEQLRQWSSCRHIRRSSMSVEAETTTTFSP

| Ca2+ flux (Indo-1 fluorimetry) in immature CD34+-derived DC; concentration giving the maximal flux (CCR6 (human)) [ng/mL] | chemotaxis (Boyden microchamber) of DC precursors (CD1a-CD86-); concentration at which the response is detected (CCR6 (human)) [ng/mL] | chemotaxis (Boyden microchamber) of immature DC (CD1a+CD86-); concentration needed to attract the cells (CCR6 (human)) [ng/mL] | Ca2+ flux (Indo-1 fluorimetry) in mature CD34+-derived DC; concentration giving the maximal flux (CCR7 (human)) [ng/mL] | chemotaxis (Boyden microchamber) of mature DC (CD1a+CD86+); concentration needed to recruit the cells (CCR7 (human)) [ng/mL] | chemotaxis of CD40L-activated CD34+-derived DC; concentration required at 48 h (CCR7 (human)) [ng/mL] | Substance |
| --- | --- | --- | --- | --- | --- | --- |
| 30 | 1 to 10 | > 300 | – | – | – | Recombinant human MIP-3α (from UniProt P78556 27-96) (ligand) |
| – | – | – | 30 | 300 | 100 to 300 | Recombinant human MIP-3β (from UniProt Q99731 22-98) (ligand) |
